According to patent US12018066:
Where two headings read alike, the source gives them in different places.

Legend:
[1] = molecular target: SARS-CoV-2 spike protein receptor binding domain (RBD2) (SARS-CoV-2) (UniProt P0DTC2); experiment: SPR sandwich binning, ligand B04
[2] = molecular target: SARS-CoV-2 spike protein receptor binding domain (RBD2) (SARS-CoV-2) (UniProt P0DTC2); experiment: SPR sandwich binning, ligand S01
[3] = molecular target: SARS-CoV-2 spike protein receptor binding domain (RBD2) (SARS-CoV-2) (UniProt P0DTC2); experiment: SPR sandwich binning, ligand E01
[4] = molecular target: SARS-CoV-2 spike protein receptor binding domain (RBD2) (SARS-CoV-2) (UniProt P0DTC2)
[5] = molecular target: SARS-CoV-2 spike protein receptor binding domain (RBD2) (SARS-CoV-2) (UniProt P0DTC2); experiment: SPR sandwich binning, ligand Anti-His
[6] = molecular target: SARS-CoV-2 spike protein receptor binding domain (RBD2) (SARS-CoV-2) (UniProt P0DTC2); experiment: SPR sandwich binning, ligand G07
[7] = molecular target: SARS-CoV-2 spike protein receptor binding domain (RBD2) (SARS-CoV-2) (UniProt P0DTC2); experiment: SPR sandwich binning, ligand CR3022
[8] = molecular target: SARS-CoV-2 spike protein receptor binding domain (RBD2) (SARS-CoV-2) (UniProt P0DTC2); experiment: SPR, immobilized antibody, RBD injected, 1:1 fit
[9] = molecular target: SARS-CoV-2 spike protein receptor binding domain (RBD2) (SARS-CoV-2) (UniProt P0DTC2); experiment: SPR sandwich binning, ligand H01
[10] = molecular target: SARS-CoV-2 spike protein receptor binding domain (RBD2) (SARS-CoV-2) (UniProt P0DTC2); experiment: SPR sandwich binning, ligand E08
[11] = molecular target: SARS-CoV-2 spike protein receptor binding domain (RBD2) (SARS-CoV-2) (UniProt P0DTC2); experiment: SPR sandwich binning, ligand H05
[12] = molecular target: SARS-CoV-2 spike protein receptor binding domain (RBD2) (SARS-CoV-2) (UniProt P0DTC2); experiment: SPR sandwich binning, ligand F07; light (intermediate) cell

Question: How did the normalized analyte binding to RBD2 held by the immobilized ligand [1] turn out when “CR3022 (commercial anti-RBD2 antibody, reference IgG)” was run?
Answer: 1.64

Question: What about the normalized analyte binding to RBD2 held by the immobilized ligand [2] of the same substance?
Answer: 1.83

Question: What about the normalized analyte binding to RBD2 held by the immobilized ligand [3] of the same substance?
Answer: 1.63

Question: What about the Kd [4] of the same substance?
Answer: 114 nM

Question: And the normalized analyte binding to RBD2 held by the immobilized ligand [5]?
Answer: 1.45

Question: And the normalized analyte binding to RBD2 held by the immobilized ligand [6]?
Answer: 1.35

Question: What about the normalized analyte binding to RBD2 held by the immobilized ligand [7] of the same substance?
Answer: -0.14

Question: What about the Kd [8] of the same substance?
Answer: 110 nM

Question: What about the normalized analyte binding to RBD2 held by the immobilized ligand [9] of the same substance?
Answer: -0.01

Question: And the normalized analyte binding to RBD2 held by the immobilized ligand [10]?
Answer: -0.1

Question: And the normalized analyte binding to RBD2 held by the immobilized ligand [11]?
Answer: -0.14

Question: And the normalized analyte binding to RBD2 held by the immobilized ligand [12]?
Answer: 0.23
